Type in all cases: cell-based, human
Test [1] concerns citrated blood. Nature of the test: T2MR clot strength (DiffT2), calcium and kaolin activation of abciximab-treated citrated blood. As to conditions: abciximab 4 or 8 μg/ml added ex vivo; 13 minutes after activation; 3 healthy donors. On the procedure:
(§1) The DiffT2 value was calculated by taking the difference between the upper and middle T2 values in the T2MR signature at a time point 13 minutes after activation. Data are shown here using samples from 3 healthy donors where clot strength was adjusted by ex vivo addition of abciximab (ReoPro) at a level of 0, 4, or 8 μg/ml prior to measurement. All samples containing abciximab were at DiffT2 values of <100 ms or TEG MA values less than 40.
(§2) A 0.5 mg/ml solution of abciximab was prepared by diluting the stock 10 mg/5 ml solution by 1:4 in saline. The abciximab-treated blood samples were incubated for at least 5 min prior to clotting. Clotting was initiated by adding 2 μL 0.2 M CaCl2 and 2 μL TEG kaolin to 34 μL of abciximab-treated blood sample. To compare the T2MR signal to TEG MA, a DiffT2 parameter was calculated by taking the difference in T2 between the upper and middle peaks at a time point 13 min after adding calcium and kaolin. The TEG MA values were measured on the same samples following manufacturer instructions.
(§3) For comparison between T2MR and TEG, calcium and kaolin activation of citrated blood was used and normal donor samples were treated with various amounts of abciximab, an inhibitor of the platelet glycoprotein αIIbβ3 receptor that binds fibrin and is essential for clot contraction.

The test system of test [2] is citrated blood. The test can be described thus: Thromboelastography maximum amplitude (TEG MA) on the same abciximab-treated samples. As to conditions: abciximab 4 or 8 μg/ml added ex vivo; 3 healthy donors. On the procedure: as §1, §2, §3
Test [3] relates to citrated whole blood. Nature of the test: T2In intrinsic assay for platelet activity, ReoPro titration. On the procedure:
Citrated whole blood from normal donors was spiked with varying concentrations of the platelet inhibitor ReoPro (Abcixirnab). 5 μL of ellagic acid solution with CaCl2 was used to activate 36.7 μL of blood with or without ReoPro inhibition. T2MR data was collected for 35 minutes. Addition of platelet inhibitor had no effect on T2MR measured clot time or % deltaT2. […] There was some donor to donor differences in responsiveness to ReoPro.

The test system of test [4] is citrated whole blood. Nature of the test: T2In T2MR clotting time, intrinsic pathway activator (ellagic acid). The note with it: T2In, 3 donors, different tPA concentrations, with or without aprotinin. From the text:
In another embodiment a coagulopathy panel is used with an intrinsic activator such as ellagic acid. The common range of clotting time is often between 100 and 120 seconds for normal blood. However, it can be 22-30 seconds, 30-44 seconds, 44-60 seconds, 60-80 seconds, 80-100 seconds, up to 2 times to 4 times the range of normal T2MR clotting times for the extrinsic activator. The abnormal clotting time ranges are above or below the normal range. The total range easily measured is 8-300 seconds though a measurement up to or beyond 1000 seconds could be performed with modified acquisition. If aprotinin is added in addition to intrinsic activator, clotting times can often be from 110.9-151.0 seconds in normal blood.
The general intrinsic activator protocol is as follows (T2In panel): an intrinsic activator solution was prepared by mixing tissue factor reagent with CaCl2. To 36.7 μL of citrated whole blood (warmed to approximately 37° C. for 3 minutes and mixed) was added 5 μL of the intrinsic activator solution (also been warmed to approximately 37° C. for one minute). The resulting solution was mixed and subjected to T2 measurements for 50 minutes. […] The T2MR of the sample was measured for 30 minutes.
The T2Ex or the T2In protocols were also used with the addition of aprotinin (T2Ex-A and T2In-A) respectively. […] The sample was mixed and read in the T2reader. […]

Test [5] relates to citrated whole blood. Nature of the test: T2In platelet activity and fibrinolysis measurement with tPA or aprotinin. As to conditions: ellagic acid with CaCl2; tPA 0, 2 or 4 nM or aprotinin control; 65 min. On the procedure:
The T2Ex or the T2In protocols were also used with the addition of aprotinin (T2Ex-A and T2In-A) respectively. For the intrinsic pathway measurement (T2In), intrinsic activator solution was prepared by mixing ellagic acid stock and CaCl2. For the intrinsic pathway measurement that includes aprotinin (T2In-A), add 41.7 μL of a 1 mg/mL stock of aprotinin to 1 mL intrinsic activator solution. 36.7 μL citrated whole blood that had been warmed to approximately 37° C. for three minutes was added and mixed. 5 μL of intrinsic activator solution with aprotinin that had been warmed to approximately 37° C. for one minute was added. The sample was mixed and read in the T2reader. The clotting time measurement was obtained after 5 minutes and then the platelet activity and fibrinolysis measurements were obtained over the following 60 minutes. In a separate assay the effects of the amounts of activator were tested.
Platelet activity and fibrinolysis measurements for the 3 donor samples in the T2In assay are shown in FIG. 15a-15b. tPA levels of 0 nM, 2 nM or 4 nM were added to citrated whole blood. Blood samples (36.7 μL) were activated by addition of 5 μL ellagic acid solution with CaCl2. T2MR data was collected for 65 min. The addition of tPA cleaves the fibrin mesh of the clot and results in clot dissolution over time. This is detected by T2MR by the change in T2 value of the serum peak (third phase). […]

The test system of test [6] is re-calcified citrated whole blood. The test can be described thus: T2MR fibrinolysis of thrombin-clotted re-calcified citrated blood after tPA addition. On the procedure: In one embodiment, blood clotting was initiated by addition of 2 μL of a 0.2 M CaCl2 solution and 2 μL of thrombin (Sigma-Aldrich, St. Louis, Mo., final concentration 0.1-3.0 U/ml) to 34 μL of blood in a 200 μL PCR tube (Eppendorf, Hauppauge, N.Y.). All components were pre-warmed for 1 min at 37° C. before mixing. Samples were mixed by three aspiration and dispersion cycles using a pipette, then put into the T2MR reader for measurement. Typical run length was 30 min with a 10 sec sampling rate. For some experiments, data collection time was extended to 1 hr.
To establish T2MR signatures for fibrinolysis, tissue plasminogen activator (tPA, Alteplase, Genentech, South San Francisco, Calif.) was added to samples clotted by thrombin. Blood clotting was initiated as described above, and the sample was incubated for […] to allow for complete clot contraction. Then, 0.5-1 μM tPA was added to clotted and contracted samples. Care was taken not to disturb clots, which were usually attached to the tube wall. The pipette tip was carefully placed into the visible serum layer on the tube side opposite to the contracted clot, and 3 μL of tPA solution was added with a single dispensing of the pipettor. The tPA solutions were made from a stock solution prepared according to manufacturer instructions using 0.15 M sodium chloride, pH 7.4.
In one embodiment, the dependencies of the T2MR signals during clotting of re-calcified citrated blood samples from healthy donors initiated by adding 3 U/ml thrombin was measured. Thrombin activates platelets and cleaves fibrinogen to form a three-dimensional fibrin network stabilized by factor XIIIa. Addition of thrombin led to rapid formation of a gelatinous meshwork that filled the sample volume accompanied by a small, rapid decrease in the T2MR signal over tens of seconds due to the sample transitioning from a liquid to gel state. In the initial gel state, only one relaxation rate was observed (FIG. 2, part a), reflecting uniform distribution of erythrocytes and other blood components. Approximately four minutes after thrombin addition, the T2MR signal split into two peaks representing distinct water populations in slow exchange with each other. […]
We then assessed the sensitivity of the T2MR platform to fibrinolysis by adding tissue-type plasminogen activator (tPA) to the clotted samples 30 minutes after thrombin.
The compartment generating the signal in FIG. 2, part b, at 300 ms that dropped to 200 ms was assessed by testing two conditions: (1) re-calcified citrated whole blood activated with thrombin to form a contracted clot and (2) re-calcified citrated whole blood activated with thrombin followed by addition of tPA. After incubation, samples were analyzed before and after mixing with a pipette to re-suspend unbound erythrocytes. […]

Setting [7] is: ellagic acid with CaCl2, varying ReoPro concentrations.
Setting [8] is: tPA added 30 minutes after thrombin.

A value given as a limit tells only on which side of the number the result lay.

B1: abciximab (antibody, chains of the INN, looked up, V domains shown)
VH: EVQLQQSGTVLARPGASVKMSCEASGYTFTNYWMHWVKQRPGQGLEWIGAIYPGNSDTSYIQKFKGKAKLTAVTSTTSVYMELSSLTNEDSAVYYCTLYDGYYVFAYWGQGTLVTVSA
VL: EIVLTQSPVTLSVTPGDSVSLSCRASRDISNNLHWFQQTSHESPRLLIKYASQSMSGIPSRFSGSGSGTDFTLSINSVETEDFGMYFCQQTNSWPYTFGGGTKLEIK
modifications: Fab
Regarding B1, the DiffT2 in test [1] is listed as < 100 ms. In addition, in test [2], the “TEG MA” value is on record as “less than 40”. Further, in test [3] (setting [7]), the “effect on % deltaT2” value is on record as “no effect” and the “effect on T2MR measured clot time” value is “no effect”. In test [3] (intrinsic activator, 5 μg/mL and 10 μg/mL ReoPro), the “platelet activity measurement (FIG. 27)” value was “inhibition of platelet activity”.

B2: tPA: tissue plasminogen activator (tPA, Alteplase, Genentech), inducer of fibrinolysis (protein, UniProt P00750 36-562, looked up)
Tissue-type plasminogen …: SYQVICRDEKTQMIYQQHQSWLRPVLRSNRVEYCWCNSGRAQCHSVPVKSCSEPRCFNGGTCQQALYFSDFVCQCPEGFAGKCCEIDTRATCYEDQGISYRGTWSTAESGAECTNWNSSALAQKPYSGRRPDAIRLGLGNHNYCRNPDRDSKPWCYVFKAGKYSSEFCSTPACSEGNSDCYFGNGSAYRGTHSLTESGASCLPWNSMILIGKVYTAQNPSAQALGLGKHNYCRNPDGDAKPWCHVLKNRRLTWEYCDVPSCSTCGLRQYSQPQFRIKGGLFADIASHPWQAAIFAKHRRSPGERFLCGGILISSCWILSAAHCFQERFPPHHLTVILGRTYRVVPGEEEQKFEVEKYIVHKEFDDDTYDNDIALLQLKSDSSRCAQESSVVRTVCLPPADLQLPDWTECELSGYGKHEALSPFYSERLKEAHVRLYPSSRCTSQHLLNRTVTDNMLCAGDTRSGGPQANLHDACQGDSGGPLVCLNDGRMTLVGIISWGLGCGQKDVPGVYTKVTNYLDWIRDNMRP
modifications: alteplase
B2: in test [4], the “clotting time curves (% deltaT2)” value is given as “appear to overlay”. For the same molecule, the “change in T2 value of the serum peak (third phase)” value in test [5] is “larger change”. Also, the “200-300 ms signal after mixing” value in test [6] (clotted with thrombin then lysed with tPA, mixed with a pipette) is reported as “disappeared altogether”. In addition, in test [6] (setting [8]), the “T2 value of the upper peak after tPA addition” value is “decreased rapidly” and the “third peak at ~100 ms after tPA addition” value is given as “persisted”. Moreover, in test [6] (tPA added 30 minutes after thrombin, decreased from 250), the “T2 value of the middle peak after tPA addition” value is 175 ms.

The record behind these values is US20180188195A1, “SYSTEMS AND METHODS FOR MULTIPLEXED HEMOSTASIS TEST PANELS” (T2 Biosystems, Inc., priority 2015, published 2018).
